Assay results as given in US20050282743A1, “Molecular interactions in cells” (Arbor Vita Corporation, priority 2001, published 2005).

T1: GST-FLJ 10324 PDZ domain 1 [GST: P08515]
T1 chain: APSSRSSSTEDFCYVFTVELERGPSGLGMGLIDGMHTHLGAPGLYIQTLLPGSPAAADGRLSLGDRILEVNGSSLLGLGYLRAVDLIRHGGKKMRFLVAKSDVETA

T2: GST-Syntrophin gamma 1 PDZ domain 1 (Homo sapiens (Human)), Q9NSN8
T2 chain: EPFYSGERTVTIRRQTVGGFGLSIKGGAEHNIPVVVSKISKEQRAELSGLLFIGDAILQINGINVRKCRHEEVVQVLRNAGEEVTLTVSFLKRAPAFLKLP

T3: GST-KIAA0807(S) PDZ domain 1 (Homo sapiens (Human)), Q6P0Q8
T3 chain: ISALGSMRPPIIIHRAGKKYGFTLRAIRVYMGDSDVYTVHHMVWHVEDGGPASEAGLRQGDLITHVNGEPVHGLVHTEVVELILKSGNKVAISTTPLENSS

T4: GST-MINT1 PDZ domain 2 (Mus musculus (Mouse)), B2RUJ5
T4 chain: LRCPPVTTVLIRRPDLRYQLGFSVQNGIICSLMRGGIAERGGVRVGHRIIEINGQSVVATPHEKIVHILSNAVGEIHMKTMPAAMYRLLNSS

T5: GST-PTPL1 PDZ domain 2 (Homo sapiens (Human)), Q12923
T5 chain: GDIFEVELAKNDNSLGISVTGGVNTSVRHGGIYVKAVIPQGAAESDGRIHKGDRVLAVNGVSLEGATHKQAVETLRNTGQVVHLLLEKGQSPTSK

T6: GST-LIM Mystique PDZ domain 1 (Homo sapiens (Human)), Q96JY6
T6 chain: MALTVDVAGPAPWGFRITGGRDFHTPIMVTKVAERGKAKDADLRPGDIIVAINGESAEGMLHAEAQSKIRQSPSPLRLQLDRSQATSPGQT

T7: GST-MINT1 PDZ domains 1, 2, Q02410
T7 chain: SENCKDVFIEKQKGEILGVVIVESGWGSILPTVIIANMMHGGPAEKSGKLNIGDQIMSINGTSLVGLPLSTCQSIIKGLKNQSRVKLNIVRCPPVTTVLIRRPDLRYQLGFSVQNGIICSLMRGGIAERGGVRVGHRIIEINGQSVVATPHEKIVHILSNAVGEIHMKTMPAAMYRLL

T8: GST-AIPC PDZ domain 1 (Homo sapiens (Human)), O15018
T8 chain: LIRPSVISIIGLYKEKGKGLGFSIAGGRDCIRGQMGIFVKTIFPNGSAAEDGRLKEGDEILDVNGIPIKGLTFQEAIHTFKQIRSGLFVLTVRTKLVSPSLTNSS

T9: GST-APXL-1 PDZ domain 1 (Homo sapiens (Human)), Q13796
T9 chain: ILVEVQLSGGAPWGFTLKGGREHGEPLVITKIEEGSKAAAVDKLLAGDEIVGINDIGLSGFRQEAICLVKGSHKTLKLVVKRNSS

T10: GST-LIM-RIL PDZ domain 1 (Homo sapiens (Human)), P50479
T10 chain: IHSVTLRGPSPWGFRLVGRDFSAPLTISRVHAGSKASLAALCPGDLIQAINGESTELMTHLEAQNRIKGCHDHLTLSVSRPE

T11: GST-KIAA0382 PDZ domain 1 (Canis lupus familiaris (Dog) (Canis familiaris)), A0A8I3
T11 chain: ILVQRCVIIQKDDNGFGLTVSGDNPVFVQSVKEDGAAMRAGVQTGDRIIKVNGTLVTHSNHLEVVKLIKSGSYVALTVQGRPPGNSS

T12: GST-TIP1 PDZ domain 1 (Table 9 insert) (Homo sapiens (Human)), O14907
T12 chain: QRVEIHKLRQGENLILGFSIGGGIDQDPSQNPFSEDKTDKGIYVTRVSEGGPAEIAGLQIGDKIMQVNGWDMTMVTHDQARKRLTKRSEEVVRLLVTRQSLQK

T13: GST-Outer Membrane PDZ domain 1 (Homo sapiens (Human)), P57105
T13 chain: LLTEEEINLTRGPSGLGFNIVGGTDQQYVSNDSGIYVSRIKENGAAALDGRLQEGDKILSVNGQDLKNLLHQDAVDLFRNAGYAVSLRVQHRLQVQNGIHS

T14: GST-INADL PDZ domain 3 (Homo sapiens (Human)), Q8NI35
T14 chain: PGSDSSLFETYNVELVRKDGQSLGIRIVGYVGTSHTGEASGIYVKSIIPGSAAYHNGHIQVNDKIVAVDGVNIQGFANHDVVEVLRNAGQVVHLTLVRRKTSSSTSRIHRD

T15: GST-FLJ00011 PDZ domain 1 (Homo sapiens (Human)), Q9H5P4
T15 chain: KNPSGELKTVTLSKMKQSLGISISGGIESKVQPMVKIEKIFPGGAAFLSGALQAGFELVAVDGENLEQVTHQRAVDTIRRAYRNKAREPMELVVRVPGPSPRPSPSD

T16: GST-KIAA1526 PDZ domain 1 (Homo sapiens (Human)), Q9P202
T16 chain: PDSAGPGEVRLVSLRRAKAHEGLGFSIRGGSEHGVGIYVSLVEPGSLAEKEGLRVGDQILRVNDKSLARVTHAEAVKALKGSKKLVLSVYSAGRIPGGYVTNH


Target: T1, GST-FLJ 10324 PDZ domain 1 [GST: P08515]
Experiment: G' assay
Further: key of the grades not given here.

Row | Binder | Classification [A450 class]
1 | AWDDSARAAGGQGLHVTAL (modifications not checked) [LPAP] | 1
2 | PYSELNYETSHYPASPDSWV (modifications not checked) [catenin - delta 2] | 3
3 | QISPGGLEPPSEKHFRETEV (modifications not checked) [TAX] | 1
4 | KTMPAAMYRLLTAQEQPVYI (modifications not checked) [MINT-1] | 5
5 | ILNSIQVMRAQMNQIQSVEV (modifications not checked) [ephrin B2] | 2

Target: T2, GST-Syntrophin gamma 1 PDZ domain 1 …
Experiment: G' assay

Row | Binder | Classification [A450 class]
6 | PYSELNYETSHYPASPDSWV (modifications not checked) [catenin - delta 2] | 1
7 | QISPGGLEPPSEKHFRETEV (modifications not checked) [TAX] | 5
8 | ILNSIQVMRAQMNQIQSVEV (modifications not checked) [ephrin B2] | 2

Target: T3, GST-KIAA0807(S) PDZ domain 1 (Homo …)
Experiment: G' assay

Row | Binder | Classification [A450 class]
9 | AWDDSARAAGGQGLHVTAL (modifications not checked) [LPAP] | 5
10 | PYSELNYETSHYPASPDSWV (modifications not checked) [catenin - delta 2] | 3
11 | QISPGGLEPPSEKHFRETEV (modifications not checked) [TAX] | 5
12 | KTMPAAMYRLLTAQEQPVYI (modifications not checked) [MINT-1] | 5
13 | ILNSIQVMRAQMNQIQSVEV (modifications not checked) [ephrin B2] | 2

Target: T4, GST-MINT1 PDZ domain 2 (Mus musculus …)
Experiment: G' assay

Row | Binder | Classification [A450 class]
14 | AWDDSARAAGGQGLHVTAL (modifications not checked) [LPAP] | 1
15 | PYSELNYETSHYPASPDSWV (modifications not checked) [catenin - delta 2] | 3
16 | ILNSIQVMRAQMNQIQSVEV (modifications not checked) [ephrin B2] | 3

Target: T5, GST-PTPL1 PDZ domain 2 (Homo sapiens …)
Experiment: G' assay

Row | Binder | Classification [A450 class]
17 | AWDDSARAAGGQGLHVTAL (modifications not checked) [LPAP] | 1
18 | PYSELNYETSHYPASPDSWV (modifications not checked) [catenin - delta 2] | 5
19 | QISPGGLEPPSEKHFRETEV (modifications not checked) [TAX] | 2
20 | ILNSIQVMRAQMNQIQSVEV (modifications not checked) [ephrin B2] | 2

Target: T6, GST-LIM Mystique PDZ domain 1 (Homo …)
Experiment: G' assay

Row | Binder | Classification [A450 class]
21 | PYSELNYETSHYPASPDSWV (modifications not checked) [catenin - delta 2] | 5
22 | QISPGGLEPPSEKHFRETEV (modifications not checked) [TAX] | 1
23 | ILNSIQVMRAQMNQIQSVEV (modifications not checked) [ephrin B2] | 1

Target: T7, GST-MINT1 PDZ domains 1, 2, Q02410
Experiment: G' assay

Row | Binder | Classification [A450 class]
24 | AWDDSARAAGGQGLHVTAL (modifications not checked) [LPAP] | 1
25 | PYSELNYETSHYPASPDSWV (modifications not checked) [catenin - delta 2] | 5
26 | KTMPAAMYRLLTAQEQPVYI (modifications not checked) [MINT-1] | 5
27 | ILNSIQVMRAQMNQIQSVEV (modifications not checked) [ephrin B2] | 2

Target: T8, GST-AIPC PDZ domain 1 (Homo sapiens …)
Experiment: G' assay

Row | Binder | Classification [A450 class]
28 | PYSELNYETSHYPASPDSWV (modifications not checked) [catenin - delta 2] | 2
29 | QISPGGLEPPSEKHFRETEV (modifications not checked) [TAX] | 1
30 | KTMPAAMYRLLTAQEQPVYI (modifications not checked) [MINT-1] | 1
31 | ILNSIQVMRAQMNQIQSVEV (modifications not checked) [ephrin B2] | 2

Target: T9, GST-APXL-1 PDZ domain 1 (Homo sapiens …)
Experiment: G' assay

Row | Binder | Classification [A450 class]
32 | AWDDSARAAGGQGLHVTAL (modifications not checked) [LPAP] | 1
33 | ILNSIQVMRAQMNQIQSVEV (modifications not checked) [ephrin B2] | 1

Target: T10, GST-LIM-RIL PDZ domain 1 (Homo sapiens …)
Experiment: G' assay

Row | Binder | Classification [A450 class]
34 | PYSELNYETSHYPASPDSWV (modifications not checked) [catenin - delta 2] | 2
35 | QISPGGLEPPSEKHFRETEV (modifications not checked) [TAX] | 1
36 | ILNSIQVMRAQMNQIQSVEV (modifications not checked) [ephrin B2] | 2

target: GST-BAI-1 Associated Protein PDZ domain 6 (Homo sapiens (Human)), Q96QZ7; experiment: G' assay
Sequence (Q96QZ7 1143-1233): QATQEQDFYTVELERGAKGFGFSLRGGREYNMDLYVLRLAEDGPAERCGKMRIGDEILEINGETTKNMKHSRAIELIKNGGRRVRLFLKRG

Row | Binder | Classification [A450 class]
37 | QISPGGLEPPSEKHFRETEV (modifications not checked) [TAX] | 1
38 | ILNSIQVMRAQMNQIQSVEV (modifications not checked) [ephrin B2] | 2

Target: T11, GST-KIAA0382 PDZ domain 1 (Canis lupus …)
Experiment: G' assay

Row | Binder | Classification [A450 class]
39 | AWDDSARAAGGQGLHVTAL (modifications not checked) [LPAP] | 5
40 | KTMPAAMYRLLTAQEQPVYI (modifications not checked) [MINT-1] | 1
41 | ILNSIQVMRAQMNQIQSVEV (modifications not checked) [ephrin B2] | 2

target: GST-BAI-1 Associated Protein PDZ domain 2 (Mus musculus (Mouse)), Q6RHR9; experiment: G' assay
Sequence (Q6RHR9 455-558): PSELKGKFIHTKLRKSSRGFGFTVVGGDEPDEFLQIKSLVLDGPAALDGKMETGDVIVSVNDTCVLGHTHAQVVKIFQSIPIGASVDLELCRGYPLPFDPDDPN

Row | Binder | Classification [A450 class]
42 | AWDDSARAAGGQGLHVTAL (modifications not checked) [LPAP] | 2
43 | QISPGGLEPPSEKHFRETEV (modifications not checked) [TAX] | 5

Target: T12, GST-TIP1 PDZ domain 1 (Table 9 insert) …
Experiment: G' assay

Row | Binder | Classification [A450 class]
44 | AWDDSARAAGGQGLHVTAL (modifications not checked) [LPAP] | 5
45 | PYSELNYETSHYPASPDSWV (modifications not checked) [catenin - delta 2] | 3
46 | QISPGGLEPPSEKHFRETEV (modifications not checked) [TAX] | 5
47 | ILNSIQVMRAQMNQIQSVEV (modifications not checked) [ephrin B2] | 2

target: GST-Atrophin-1 Interacting Protein PDZ domain 3 (Rattus norvegicus (Rat)), O88382; experiment: G' assay
Sequence (O88382 774-865, tags or fused parts left off): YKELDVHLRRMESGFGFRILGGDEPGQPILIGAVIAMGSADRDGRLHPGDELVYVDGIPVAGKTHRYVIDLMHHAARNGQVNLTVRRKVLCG

Row | Binder | Classification [A450 class]
48 | PYSELNYETSHYPASPDSWV (modifications not checked) [catenin - delta 2] | 1
49 | QISPGGLEPPSEKHFRETEV (modifications not checked) [TAX] | 1
50 | ILNSIQVMRAQMNQIQSVEV (modifications not checked) [ephrin B2] | 1

Target: T13, GST-Outer Membrane PDZ domain 1 (Homo …)
Experiment: G' assay

Row | Binder | Classification [A450 class]
51 | PYSELNYETSHYPASPDSWV (modifications not checked) [catenin - delta 2] | 5
52 | QISPGGLEPPSEKHFRETEV (modifications not checked) [TAX] | 5

Target: T14, GST-INADL PDZ domain 3 (Homo sapiens …)
Experiment: G' assay

Row | Binder | Classification [A450 class]
53 | QISPGGLEPPSEKHFRETEV (modifications not checked) [TAX] | 1
54 | ILNSIQVMRAQMNQIQSVEV (modifications not checked) [ephrin B2] | 2

Target: T15, GST-FLJ00011 PDZ domain 1 (Homo sapiens …)
Experiment: G' assay

Row | Binder | Classification [A450 class]
55 | AWDDSARAAGGQGLHVTAL (modifications not checked) [LPAP] | 4
56 | QISPGGLEPPSEKHFRETEV (modifications not checked) [TAX] | 1
57 | ILNSIQVMRAQMNQIQSVEV (modifications not checked) [ephrin B2] | 2

Target: T16, GST-KIAA1526 PDZ domain 1 (Homo sapiens …)
Experiment: G' assay

Row | Binder | Classification [A450 class]
58 | AWDDSARAAGGQGLHVTAL (modifications not checked) [LPAP] | 1
59 | PYSELNYETSHYPASPDSWV (modifications not checked) [catenin - delta 2] | 2
60 | QISPGGLEPPSEKHFRETEV (modifications not checked) [TAX] | 3
61 | ILNSIQVMRAQMNQIQSVEV (modifications not checked) [ephrin B2] | 3

target: GST-PAR3 PDZ domain 3 (Homo sapiens (Human)), Q8TEW0; experiment: G' assay
Sequence (Q8TEW0 579-681): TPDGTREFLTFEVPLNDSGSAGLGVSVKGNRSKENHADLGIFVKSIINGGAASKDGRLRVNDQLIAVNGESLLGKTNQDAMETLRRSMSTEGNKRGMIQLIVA

Row | Binder | Classification [A450 class]
62 | PYSELNYETSHYPASPDSWV (modifications not checked) [catenin - delta 2] | 1
63 | KTMPAAMYRLLTAQEQPVYI (modifications not checked) [MINT-1] | 5
64 | ILNSIQVMRAQMNQIQSVEV (modifications not checked) [ephrin B2] | 2
